From patent US20230227565A1, “Method for Treating CD127-Positive Cancers by Administering an Anti-CD127 Agent” (OSE IMMUNOTHERAPEUTICS, priority 2021, published 2023)

Experiments:
macrophages [1] = test: Phagocytosis of macrophages by macrophages (autophagocytosis); details: FIG. 11A
Experimental: (§1) Phagocytosis assays. In vitro phagocytosis assays were performed by 1-hour coculture of 2,5×10^4 human primary M1 or THP1 macrophages labeled with CellTrackerGreen (ThermoFisher, Waltham, Mass., USA, 1/2000, 20 min at 37° C.) and 5×10^4 leukemic cells labeled with CPD (ThermoFisher, 1/2000 10 min at 37° C.) in serum-free RPMI. Phagocytosis was analyzed by a CytoFLEX flow cytometer (Beckman, Brea, Calif., USA) and analysis using FlowJo software (TreeStar, BD Life Sciences Franklin Lakes, N.J., USAs). The phagocytic index was calculated as follows: fold change of percentage of CPD+ cells in CTG+ macrophages compared to the one detected by treatment with istotype control multiplied by the fold change in geometric mean in APC fluorescence (CPD) in CTG+ macrophages compared to the one detected with isotype control.

macrophages [2] = test: Toxicity on macrophages (viability); details: FIG. 9; increasing doses
normal T cells = test: Phagocytosis of normal T cells by macrophages; format: cell-based, human; details: FIG. 10
Experimental: as §1

With “5F9: reference pro-phagocytic anti-CD47 antibody” the autophagocytosis of macrophages (macrophages [1]) was “have an autophagocytosis activity”, the “overall number of live macrophages” value (macrophages [2]) was “drastically reduced” and the “phagocytosis of normal T cells by macrophages” value (normal T cells) was “A similar result is obtained”.
